Test results from article PMC9482650, “Quantitative fragmentomics allow affinity mapping of interactomes” (Nature Communications, 2022).

What was measured:
Experiment in all cases: holdup assay
Parameters in all cases: key: below the threshold = too weak to quantify, mostly under pKd 3.1 to 4
PTPN13_1, Q12923 = target: T1, PTPN13_1, Q12923
T1 sequence (Q12923 1088-1188, limits assumed, looked up): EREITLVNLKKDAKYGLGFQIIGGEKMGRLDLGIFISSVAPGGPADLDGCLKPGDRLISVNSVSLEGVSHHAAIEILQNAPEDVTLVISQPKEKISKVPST

DLG2_3, Q15700 = target: DLG2_3, Q15700
SCRIB_1, Q14160 = target: SCRIB_1, Q14160
GRID2IP_2, A4D2P6 = target: GRID2IP_2, A4D2P6
LIN7B, Q9HAP6 = target: T2, LIN7B, Q9HAP6
T2 sequence (Q9HAP6 88-185, limits assumed, looked up): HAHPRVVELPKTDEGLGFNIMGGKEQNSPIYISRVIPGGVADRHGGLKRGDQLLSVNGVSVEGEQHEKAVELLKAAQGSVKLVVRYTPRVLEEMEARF

TJP1_2, Q07157 = target: TJP1_2, Q07157
MAST1, Q9Y2H9 = target: MAST1, Q9Y2H9
MAGI2_4, Q86UL8 = target: MAGI2_4, Q86UL8
LNX1_3, Q8TBB1 = target: LNX1_3, Q8TBB1
GRIP1_7, Q9Y3R0 = target: T3, GRIP1_7, Q9Y3R0
T3 sequence (Q9Y3R0 999-1096, limits assumed, looked up): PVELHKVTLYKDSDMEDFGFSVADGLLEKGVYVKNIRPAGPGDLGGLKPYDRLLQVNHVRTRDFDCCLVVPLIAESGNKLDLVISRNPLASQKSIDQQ

PDZD7_3, Q9H5P4 = target: T4, PDZD7_3, Q9H5P4
T4 sequence (Q9H5P4 857-944, limits assumed, looked up): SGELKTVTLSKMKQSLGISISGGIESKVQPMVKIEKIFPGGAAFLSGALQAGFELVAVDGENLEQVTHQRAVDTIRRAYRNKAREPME

FRMPD1, Q5SYB0 = target: T5, FRMPD1, Q5SYB0
T5 sequence (Q5SYB0 52-145, limits assumed, looked up): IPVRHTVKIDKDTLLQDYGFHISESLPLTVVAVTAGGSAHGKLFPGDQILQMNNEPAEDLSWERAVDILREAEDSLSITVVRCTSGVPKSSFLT

APBA2_2, Q99767 = target: T6, APBA2_2, Q99767
T6 sequence (Q99767 654-744, limits assumed, looked up): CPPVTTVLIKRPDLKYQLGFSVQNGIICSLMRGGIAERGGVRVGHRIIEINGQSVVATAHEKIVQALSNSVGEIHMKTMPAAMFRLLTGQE

TIAM2, Q8IVF5 = target: T7, TIAM2, Q8IVF5
T7 sequence (Q8IVF5 885-986, limits assumed, looked up): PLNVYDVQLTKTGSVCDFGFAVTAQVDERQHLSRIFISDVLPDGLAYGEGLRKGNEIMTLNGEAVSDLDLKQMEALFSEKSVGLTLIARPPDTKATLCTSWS

MAGI2_6, Q86UL8 = target: MAGI2_6, Q86UL8
GRIP1_4, Q9Y3R0 = target: T8, GRIP1_4, Q9Y3R0
T8 sequence (Q9Y3R0 467-571, limits assumed, looked up): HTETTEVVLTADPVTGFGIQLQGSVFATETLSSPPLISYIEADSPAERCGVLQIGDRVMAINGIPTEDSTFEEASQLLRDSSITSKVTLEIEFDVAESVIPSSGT

LIN7A, O14910 = target: T9, LIN7A, O14910
T9 sequence (O14910 103-200, limits assumed, looked up): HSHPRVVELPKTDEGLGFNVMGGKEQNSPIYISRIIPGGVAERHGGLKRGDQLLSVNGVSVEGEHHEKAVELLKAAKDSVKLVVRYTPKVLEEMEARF

DLG4_2, P78352 = target: DLG4_2, P78352
LNX1_1, Q8TBB1 = target: LNX1_1, Q8TBB1
PCLO, Q9Y6V0 = target: T10, PCLO, Q9Y6V0
T10 sequence (Q9Y6V0 4491-4600, limits assumed, looked up): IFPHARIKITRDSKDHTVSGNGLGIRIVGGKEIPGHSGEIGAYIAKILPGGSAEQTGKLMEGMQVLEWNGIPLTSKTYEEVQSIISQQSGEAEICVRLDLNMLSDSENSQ

FRMPD4, Q14CM0 = target: FRMPD4, Q14CM0
PDZRN4_1, Q6ZMN7 = target: PDZRN4_1, Q6ZMN7
FRMPD3, Q5JV73 = target: FRMPD3, Q5JV73
MAGI2_3, Q86UL8 = target: MAGI2_3, Q86UL8
GRID2IP_1, A4D2P6 = target: GRID2IP_1, A4D2P6
Inadl_5, Q8NI35 = target: Inadl_5, Q8NI35
IL16_1, Q14005 = target: IL16_1, Q14005
[1] = plain residues with an end cap or a label only (N-terminal biotin on a linker: ado-ado)
[2] = plain residues with an end cap or a label only (N-terminal biotin on a linker: (peg)3)

FRMPD3, Q5JV73, sequence (Q5JV73 12-100): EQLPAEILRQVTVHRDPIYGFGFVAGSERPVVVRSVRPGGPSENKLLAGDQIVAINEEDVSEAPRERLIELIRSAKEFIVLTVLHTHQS
Inadl_5, Q8NI35, sequence (Q8NI35 673-780): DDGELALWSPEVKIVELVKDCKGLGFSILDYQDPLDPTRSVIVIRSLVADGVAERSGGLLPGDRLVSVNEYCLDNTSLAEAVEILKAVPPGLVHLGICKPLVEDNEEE
GRID2IP_2, A4D2P6, sequence (A4D2P6 272-370): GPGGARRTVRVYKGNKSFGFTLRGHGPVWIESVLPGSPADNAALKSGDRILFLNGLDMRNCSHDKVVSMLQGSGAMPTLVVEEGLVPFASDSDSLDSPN
GRID2IP_1, A4D2P6, sequence (A4D2P6 1-87): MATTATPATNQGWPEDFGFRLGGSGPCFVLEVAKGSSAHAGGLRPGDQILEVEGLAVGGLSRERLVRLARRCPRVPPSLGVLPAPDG
LNX1_1, Q8TBB1, sequence (Q8TBB1 261-371): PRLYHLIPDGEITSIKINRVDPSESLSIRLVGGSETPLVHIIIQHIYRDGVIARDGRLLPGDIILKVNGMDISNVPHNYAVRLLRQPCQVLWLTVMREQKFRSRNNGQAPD
PDZRN4_1, Q6ZMN7, sequence (Q6ZMN7 213-318): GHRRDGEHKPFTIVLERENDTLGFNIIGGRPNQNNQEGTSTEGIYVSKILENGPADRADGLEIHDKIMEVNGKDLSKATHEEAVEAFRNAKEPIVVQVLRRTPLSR
LNX1_3, Q8TBB1, sequence (Q8TBB1 500-596): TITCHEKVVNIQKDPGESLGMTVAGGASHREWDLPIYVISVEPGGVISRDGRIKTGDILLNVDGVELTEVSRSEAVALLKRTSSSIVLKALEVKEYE
MAST1, Q9Y2H9, sequence (Q9Y2H9 962-1065): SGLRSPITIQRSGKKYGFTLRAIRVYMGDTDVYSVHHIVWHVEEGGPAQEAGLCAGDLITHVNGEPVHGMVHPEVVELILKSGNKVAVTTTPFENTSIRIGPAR
TJP1_2, Q07157, sequence (Q07157 181-274): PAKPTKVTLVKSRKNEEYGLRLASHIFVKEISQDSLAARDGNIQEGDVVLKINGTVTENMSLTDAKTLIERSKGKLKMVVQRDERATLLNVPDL
DLG4_2, P78352, sequence (P78352 155-259): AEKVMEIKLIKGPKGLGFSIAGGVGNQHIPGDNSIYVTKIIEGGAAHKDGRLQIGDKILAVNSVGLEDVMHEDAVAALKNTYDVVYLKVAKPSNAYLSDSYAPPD
FRMPD4, Q14CM0, sequence (Q14CM0 67-160): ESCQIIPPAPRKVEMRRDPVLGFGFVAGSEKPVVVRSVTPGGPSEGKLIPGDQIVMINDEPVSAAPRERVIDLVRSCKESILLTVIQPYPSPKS
MAGI2_6, Q86UL8, sequence (Q86UL8 1141-1229): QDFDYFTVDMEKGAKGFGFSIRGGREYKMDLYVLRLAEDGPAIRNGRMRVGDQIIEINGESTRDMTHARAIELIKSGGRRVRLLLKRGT
MAGI2_4, Q86UL8, sequence (Q86UL8 772-865): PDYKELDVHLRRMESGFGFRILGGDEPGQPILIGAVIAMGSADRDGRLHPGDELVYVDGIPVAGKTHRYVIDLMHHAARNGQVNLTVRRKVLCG
MAGI2_3, Q86UL8, sequence (Q86UL8 600-682): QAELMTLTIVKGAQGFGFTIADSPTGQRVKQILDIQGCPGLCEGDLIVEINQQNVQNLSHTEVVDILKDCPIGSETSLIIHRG
SCRIB_1, Q14160, sequence (Q14160 718-814): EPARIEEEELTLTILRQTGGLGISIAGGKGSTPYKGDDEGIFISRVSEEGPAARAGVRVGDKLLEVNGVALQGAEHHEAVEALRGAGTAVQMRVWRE
IL16_1, Q14005, sequence (Q14005 210-306): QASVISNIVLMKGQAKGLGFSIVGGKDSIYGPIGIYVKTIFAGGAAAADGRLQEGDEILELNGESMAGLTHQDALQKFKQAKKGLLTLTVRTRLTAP

B1: KCNA7, Q96RP8 (peptide)
chain: PPGKHLVTEV
PTPN13_1, Q12923; [1]
  pKd: below the threshold
DLG2_3, Q15700; [1]
  pKd: 4.71
SCRIB_1, Q14160; [1]
  pKd: 4.72
GRID2IP_2, A4D2P6; [1]
  pKd: 4.37
LIN7B, Q9HAP6; [1]
  pKd: 3.97
TJP1_2, Q07157; [1]
  pKd: below the threshold
MAST1, Q9Y2H9; [1]
  pKd: 4.58
MAGI2_4, Q86UL8; [1]
  pKd: 4.48
LNX1_3, Q8TBB1; [1]
  pKd: below the threshold
GRIP1_7, Q9Y3R0; [1]
  pKd: below the threshold
PDZD7_3, Q9H5P4; [1]
  pKd: 5.2
FRMPD1, Q5SYB0; [1]
  pKd: below the threshold
APBA2_2, Q99767; [1]
  pKd: below the threshold
TIAM2, Q8IVF5; [1]
  pKd: 4.01
MAGI2_6, Q86UL8; [1]
  pKd: 4.51
GRIP1_4, Q9Y3R0; [1]
  pKd: below the threshold
LIN7A, O14910; [1]
  pKd: below the threshold
DLG4_2, P78352; [1]
  pKd: 5.11
LNX1_1, Q8TBB1; [1]
  pKd: 4.22
PCLO, Q9Y6V0; [1]
  pKd: below the threshold
FRMPD4, Q14CM0; [1]
  pKd: below the threshold
PDZRN4_1, Q6ZMN7; [1]
  pKd: below the threshold
FRMPD3, Q5JV73; [1]
  pKd: below the threshold
MAGI2_3, Q86UL8; [1]
  pKd: 4.22
GRID2IP_1, A4D2P6; [1]
  pKd: below the threshold
Inadl_5, Q8NI35; [1]
  pKd: below the threshold
IL16_1, Q14005; [1]
  pKd: 3.5

B2: SARS-Cov2-N, P0DTC9 (peptide)
chain: QQSMSSADSTQA
PTPN13_1, Q12923; [2]
  pKd: below the threshold
DLG2_3, Q15700; [2]
  pKd: below the threshold
SCRIB_1, Q14160; [2]
  pKd: below the threshold
GRID2IP_2, A4D2P6; [2]
  pKd: below the threshold
LIN7B, Q9HAP6; [2]
  pKd: below the threshold
TJP1_2, Q07157; [2]
  pKd: below the threshold
MAST1, Q9Y2H9; [2]
  pKd: below the threshold
MAGI2_4, Q86UL8; [2]
  pKd: below the threshold
LNX1_3, Q8TBB1; [2]
  pKd: below the threshold
GRIP1_7, Q9Y3R0; [2]
  pKd: below the threshold
PDZD7_3, Q9H5P4; [2]
  pKd: below the threshold
FRMPD1, Q5SYB0; [2]
  pKd: below the threshold
APBA2_2, Q99767; [2]
  pKd: below the threshold
TIAM2, Q8IVF5; [2]
  pKd: below the threshold
MAGI2_6, Q86UL8; [2]
  pKd: below the threshold
GRIP1_4, Q9Y3R0; [2]
  pKd: below the threshold
LIN7A, O14910; [2]
  pKd: below the threshold
DLG4_2, P78352; [2]
  pKd: below the threshold
LNX1_1, Q8TBB1; [2]
  pKd: below the threshold
PCLO, Q9Y6V0; [2]
  pKd: below the threshold
FRMPD4, Q14CM0; [2]
  pKd: below the threshold
PDZRN4_1, Q6ZMN7; [2]
  pKd: below the threshold
FRMPD3, Q5JV73; [2]
  pKd: below the threshold
MAGI2_3, Q86UL8; [2]
  pKd: below the threshold
GRID2IP_1, A4D2P6; [2]
  pKd: below the threshold
Inadl_5, Q8NI35; [2]
  pKd: below the threshold
IL16_1, Q14005; [2]
  pKd: below the threshold

B3: PLEKHA1, Q9HB21 (peptide)
chain: DDASLPVSDV
PTPN13_1, Q12923; [1]
  pKd: below the threshold
DLG2_3, Q15700; [1]
  pKd: below the threshold
SCRIB_1, Q14160; [1]
  pKd: below the threshold
GRID2IP_2, A4D2P6; [1]
  pKd: 4.35
LIN7B, Q9HAP6; [1]
  pKd: below the threshold
TJP1_2, Q07157; [1]
  pKd: below the threshold
MAST1, Q9Y2H9; [1]
  pKd: 3.96
MAGI2_4, Q86UL8; [1]
  pKd: below the threshold
LNX1_3, Q8TBB1; [1]
  pKd: below the threshold
GRIP1_7, Q9Y3R0; [1]
  pKd: below the threshold
PDZD7_3, Q9H5P4; [1]
  pKd: 5.22
FRMPD1, Q5SYB0; [1]
  pKd: below the threshold
APBA2_2, Q99767; [1]
  pKd: below the threshold
TIAM2, Q8IVF5; [1]
  pKd: below the threshold
MAGI2_6, Q86UL8; [1]
  pKd: 5.09
GRIP1_4, Q9Y3R0; [1]
  pKd: below the threshold
LIN7A, O14910; [1]
  pKd: below the threshold
DLG4_2, P78352; [1]
  pKd: below the threshold
LNX1_1, Q8TBB1; [1]
  pKd: 4.91
PCLO, Q9Y6V0; [1]
  pKd: below the threshold
FRMPD4, Q14CM0; [1]
  pKd: below the threshold
PDZRN4_1, Q6ZMN7; [1]
  pKd: below the threshold
FRMPD3, Q5JV73; [1]
  pKd: below the threshold
MAGI2_3, Q86UL8; [1]
  pKd: below the threshold
GRID2IP_1, A4D2P6; [1]
  pKd: below the threshold
Inadl_5, Q8NI35; [1]
  pKd: below the threshold
IL16_1, Q14005; [1]
  pKd: 3.89

B4: TRIP6, Q15654 (peptide)
chain: ELSATVTTDC
PTPN13_1, Q12923; [1]
  pKd: below the threshold
DLG2_3, Q15700; [1]
  pKd: 3.57
SCRIB_1, Q14160; [1]
  pKd: 4.48
GRID2IP_2, A4D2P6; [1]
  pKd: 3.69
LIN7B, Q9HAP6; [1]
  pKd: below the threshold
TJP1_2, Q07157; [1]
  pKd: 4.06
MAST1, Q9Y2H9; [1]
  pKd: 3.63
MAGI2_4, Q86UL8; [1]
  pKd: below the threshold
LNX1_3, Q8TBB1; [1]
  pKd: below the threshold
GRIP1_7, Q9Y3R0; [1]
  pKd: below the threshold
PDZD7_3, Q9H5P4; [1]
  pKd: 3.8
FRMPD1, Q5SYB0; [1]
  pKd: below the threshold
APBA2_2, Q99767; [1]
  pKd: below the threshold
TIAM2, Q8IVF5; [1]
  pKd: below the threshold
MAGI2_6, Q86UL8; [1]
  pKd: 4.24
GRIP1_4, Q9Y3R0; [1]
  pKd: below the threshold
LIN7A, O14910; [1]
  pKd: below the threshold
DLG4_2, P78352; [1]
  pKd: 3.91
LNX1_1, Q8TBB1; [1]
  pKd: 3.95
PCLO, Q9Y6V0; [1]
  pKd: below the threshold
FRMPD4, Q14CM0; [1]
  pKd: below the threshold
PDZRN4_1, Q6ZMN7; [1]
  pKd: below the threshold
FRMPD3, Q5JV73; [1]
  pKd: below the threshold
MAGI2_3, Q86UL8; [1]
  pKd: 3.56
GRID2IP_1, A4D2P6; [1]
  pKd: below the threshold
Inadl_5, Q8NI35; [1]
  pKd: below the threshold
IL16_1, Q14005; [1]
  pKd: below the threshold

B5: SCN5A, Q14524 (peptide)
chain: SPDRDRESIV
PTPN13_1, Q12923; [1]
  pKd: below the threshold
DLG2_3, Q15700; [1]
  pKd: below the threshold
SCRIB_1, Q14160; [1]
  pKd: 3.57
GRID2IP_2, A4D2P6; [1]
  pKd: 3.63
LIN7B, Q9HAP6; [1]
  pKd: below the threshold
TJP1_2, Q07157; [1]
  pKd: 3.49
MAST1, Q9Y2H9; [1]
  pKd: 3.83
MAGI2_4, Q86UL8; [1]
  pKd: 3.63
LNX1_3, Q8TBB1; [1]
  pKd: below the threshold
GRIP1_7, Q9Y3R0; [1]
  pKd: below the threshold
PDZD7_3, Q9H5P4; [1]
  pKd: 4.63
FRMPD1, Q5SYB0; [1]
  pKd: below the threshold
APBA2_2, Q99767; [1]
  pKd: below the threshold
TIAM2, Q8IVF5; [1]
  pKd: below the threshold
MAGI2_6, Q86UL8; [1]
  pKd: 3.67
GRIP1_4, Q9Y3R0; [1]
  pKd: below the threshold
LIN7A, O14910; [1]
  pKd: below the threshold
DLG4_2, P78352; [1]
  pKd: 4.73
LNX1_1, Q8TBB1; [1]
  pKd: 3.88
PCLO, Q9Y6V0; [1]
  pKd: below the threshold
FRMPD4, Q14CM0; [1]
  pKd: below the threshold
PDZRN4_1, Q6ZMN7; [1]
  pKd: 3.95
FRMPD3, Q5JV73; [1]
  pKd: below the threshold
MAGI2_3, Q86UL8; [1]
  pKd: 4.02
GRID2IP_1, A4D2P6; [1]
  pKd: below the threshold
Inadl_5, Q8NI35; [1]
  pKd: below the threshold
IL16_1, Q14005; [1]
  pKd: 5.08
